Experimental data reported in patent EP4321174A1 (Genome and Company, dated 2024).

Experiments:
Assay in all cases: ELISA, coated CNTN4 domain sample, anti-human IgG Fc-HRP
[1] = target: T1, Human CNTN4 domain sample D1-5 (human, UniProt Q8IWV2 19-493, limits assumed)
T1 construct: domain: Domains 1 to 5; Coated at 2.0 ug/mL
T1 sequence (looked up): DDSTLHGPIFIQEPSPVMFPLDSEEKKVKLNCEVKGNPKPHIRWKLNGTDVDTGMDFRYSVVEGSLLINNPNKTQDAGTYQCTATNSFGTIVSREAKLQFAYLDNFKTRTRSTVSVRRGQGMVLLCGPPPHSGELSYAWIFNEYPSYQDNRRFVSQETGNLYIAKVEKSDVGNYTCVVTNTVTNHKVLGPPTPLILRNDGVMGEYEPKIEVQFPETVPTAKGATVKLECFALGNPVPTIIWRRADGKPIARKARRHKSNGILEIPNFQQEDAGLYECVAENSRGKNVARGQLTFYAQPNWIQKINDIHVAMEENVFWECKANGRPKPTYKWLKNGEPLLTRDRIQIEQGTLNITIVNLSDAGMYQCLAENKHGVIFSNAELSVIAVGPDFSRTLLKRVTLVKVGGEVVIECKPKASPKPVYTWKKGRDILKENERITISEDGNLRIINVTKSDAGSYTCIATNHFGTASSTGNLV

[2] = target: T2, Human CNTN4 domain sample D1-8 (human, UniProt Q8IWV2 19-799, limits assumed)
T2 construct: domain: Domains 1 to 8; Coated at 3.2 ug/mL
T2 sequence (looked up): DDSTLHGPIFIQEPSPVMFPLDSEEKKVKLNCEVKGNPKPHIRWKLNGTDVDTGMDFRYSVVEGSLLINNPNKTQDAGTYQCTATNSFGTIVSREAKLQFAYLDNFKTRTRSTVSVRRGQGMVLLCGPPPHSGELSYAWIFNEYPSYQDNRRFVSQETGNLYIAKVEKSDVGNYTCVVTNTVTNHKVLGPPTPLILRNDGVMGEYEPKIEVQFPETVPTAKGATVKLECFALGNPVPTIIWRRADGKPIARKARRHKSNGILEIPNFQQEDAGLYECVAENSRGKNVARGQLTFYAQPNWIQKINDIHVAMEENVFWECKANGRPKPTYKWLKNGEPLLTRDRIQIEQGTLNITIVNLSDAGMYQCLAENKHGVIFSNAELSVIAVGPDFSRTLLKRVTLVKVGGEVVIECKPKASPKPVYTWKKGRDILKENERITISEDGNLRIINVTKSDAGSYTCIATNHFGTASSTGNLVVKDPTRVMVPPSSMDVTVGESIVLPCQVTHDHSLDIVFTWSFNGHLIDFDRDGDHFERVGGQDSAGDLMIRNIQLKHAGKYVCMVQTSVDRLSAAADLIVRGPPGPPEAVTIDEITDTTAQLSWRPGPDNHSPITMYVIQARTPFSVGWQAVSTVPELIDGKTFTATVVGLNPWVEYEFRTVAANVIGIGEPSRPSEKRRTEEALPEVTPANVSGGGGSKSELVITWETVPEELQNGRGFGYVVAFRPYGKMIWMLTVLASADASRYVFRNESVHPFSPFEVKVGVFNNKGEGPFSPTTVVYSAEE

[3] = target: T3, Human CNTN4 domain sample Full (Domains 1 to 10) (human, UniProt Q8IWV2 19-1000, limits assumed)
T3 construct: domain: Domains 1 to 10 (Ig1 to FN4); Coated on the ELISA plate at 4 ug/mL
T3 sequence (looked up): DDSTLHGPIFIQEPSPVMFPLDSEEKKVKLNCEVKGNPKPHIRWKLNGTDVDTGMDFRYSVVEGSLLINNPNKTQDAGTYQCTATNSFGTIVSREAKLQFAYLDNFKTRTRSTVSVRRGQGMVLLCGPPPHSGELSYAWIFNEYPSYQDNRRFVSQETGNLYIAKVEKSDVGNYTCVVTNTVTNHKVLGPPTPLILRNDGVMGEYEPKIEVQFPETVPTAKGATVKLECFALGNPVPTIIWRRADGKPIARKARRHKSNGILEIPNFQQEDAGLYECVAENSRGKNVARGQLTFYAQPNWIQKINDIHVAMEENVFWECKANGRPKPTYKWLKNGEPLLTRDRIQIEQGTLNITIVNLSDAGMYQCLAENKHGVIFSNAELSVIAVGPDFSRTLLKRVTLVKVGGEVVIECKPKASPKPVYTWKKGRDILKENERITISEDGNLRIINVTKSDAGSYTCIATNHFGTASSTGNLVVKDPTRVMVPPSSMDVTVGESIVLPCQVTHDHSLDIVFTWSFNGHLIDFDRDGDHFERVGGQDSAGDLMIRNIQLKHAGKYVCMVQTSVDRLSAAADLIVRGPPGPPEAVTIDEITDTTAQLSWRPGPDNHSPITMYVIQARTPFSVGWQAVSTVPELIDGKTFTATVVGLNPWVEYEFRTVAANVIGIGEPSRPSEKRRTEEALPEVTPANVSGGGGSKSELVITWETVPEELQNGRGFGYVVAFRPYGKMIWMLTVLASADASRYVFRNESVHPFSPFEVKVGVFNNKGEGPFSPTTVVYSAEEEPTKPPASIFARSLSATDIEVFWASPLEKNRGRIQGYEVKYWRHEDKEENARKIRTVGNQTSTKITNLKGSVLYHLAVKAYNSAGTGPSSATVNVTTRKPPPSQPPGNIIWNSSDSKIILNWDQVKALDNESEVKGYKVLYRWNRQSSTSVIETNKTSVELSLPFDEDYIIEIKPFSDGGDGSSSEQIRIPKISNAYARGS

[4] = target: T4, Human CNTN4 domain sample D1-9 (human, UniProt Q8IWV2 19-899, limits assumed)
T4 construct: domain: Domains 1 to 9; Coated at 3.6 ug/mL
T4 sequence (looked up): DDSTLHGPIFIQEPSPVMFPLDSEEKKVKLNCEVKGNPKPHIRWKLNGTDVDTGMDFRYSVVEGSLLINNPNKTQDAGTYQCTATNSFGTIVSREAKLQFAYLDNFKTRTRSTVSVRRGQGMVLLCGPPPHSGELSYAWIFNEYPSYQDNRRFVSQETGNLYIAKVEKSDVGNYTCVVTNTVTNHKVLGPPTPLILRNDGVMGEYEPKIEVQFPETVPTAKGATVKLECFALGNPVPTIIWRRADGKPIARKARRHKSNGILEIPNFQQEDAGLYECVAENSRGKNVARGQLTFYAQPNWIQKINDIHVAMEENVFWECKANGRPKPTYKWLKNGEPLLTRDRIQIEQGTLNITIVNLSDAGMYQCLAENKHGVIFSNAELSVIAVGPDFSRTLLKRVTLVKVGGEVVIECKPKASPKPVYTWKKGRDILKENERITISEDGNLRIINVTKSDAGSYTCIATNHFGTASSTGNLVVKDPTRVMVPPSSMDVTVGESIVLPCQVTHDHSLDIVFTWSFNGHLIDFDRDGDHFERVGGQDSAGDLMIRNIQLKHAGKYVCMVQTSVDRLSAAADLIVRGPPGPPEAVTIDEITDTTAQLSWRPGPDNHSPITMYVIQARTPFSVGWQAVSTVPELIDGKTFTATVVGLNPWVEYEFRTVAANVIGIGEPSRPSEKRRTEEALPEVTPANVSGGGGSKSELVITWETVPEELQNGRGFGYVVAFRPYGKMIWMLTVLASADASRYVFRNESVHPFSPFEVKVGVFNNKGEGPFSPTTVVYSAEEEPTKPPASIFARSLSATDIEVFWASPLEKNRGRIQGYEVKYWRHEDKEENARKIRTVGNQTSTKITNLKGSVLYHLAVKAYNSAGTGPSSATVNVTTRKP

[5] = target: T5, Human CNTN4 domain sample D1-4 (human, UniProt Q8IWV2 19-400, limits assumed)
T5 construct: domain: Domains 1 to 4; Coated at 1.6 ug/mL
T5 sequence (looked up): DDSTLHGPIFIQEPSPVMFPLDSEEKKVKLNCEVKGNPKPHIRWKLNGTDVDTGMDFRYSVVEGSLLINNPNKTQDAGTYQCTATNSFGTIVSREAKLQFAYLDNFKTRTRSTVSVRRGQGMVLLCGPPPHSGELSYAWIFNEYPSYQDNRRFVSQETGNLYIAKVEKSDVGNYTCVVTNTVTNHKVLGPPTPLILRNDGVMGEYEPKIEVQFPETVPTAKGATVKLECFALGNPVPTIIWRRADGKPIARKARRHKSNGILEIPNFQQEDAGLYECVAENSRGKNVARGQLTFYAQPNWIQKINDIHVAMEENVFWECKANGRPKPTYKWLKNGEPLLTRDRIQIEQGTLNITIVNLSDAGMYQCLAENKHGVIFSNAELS

[6] = target: T6, Human CNTN4 domain sample D1-6 (human, UniProt Q8IWV2 19-586, limits assumed)
T6 construct: domain: Domains 1 to 6; Coated at 2.3 ug/mL
T6 sequence (looked up): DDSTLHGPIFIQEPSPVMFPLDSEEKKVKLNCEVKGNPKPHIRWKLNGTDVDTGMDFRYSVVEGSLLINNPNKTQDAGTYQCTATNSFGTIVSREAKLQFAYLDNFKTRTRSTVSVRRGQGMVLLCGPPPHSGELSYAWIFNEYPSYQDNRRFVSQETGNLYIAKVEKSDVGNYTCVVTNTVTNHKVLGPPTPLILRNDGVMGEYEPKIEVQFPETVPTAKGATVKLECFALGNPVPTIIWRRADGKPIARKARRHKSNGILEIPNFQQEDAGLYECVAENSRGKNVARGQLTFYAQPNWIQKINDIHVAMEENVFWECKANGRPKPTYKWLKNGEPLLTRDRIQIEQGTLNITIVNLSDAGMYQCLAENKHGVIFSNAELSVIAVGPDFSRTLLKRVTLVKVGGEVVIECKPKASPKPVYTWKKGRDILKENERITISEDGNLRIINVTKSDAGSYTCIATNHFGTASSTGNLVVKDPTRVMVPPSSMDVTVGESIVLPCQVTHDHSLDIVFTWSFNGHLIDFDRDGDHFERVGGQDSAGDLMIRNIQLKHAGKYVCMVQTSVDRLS

[7] = target: T7, Human CNTN4 domain sample D1-7 (human, UniProt Q8IWV2 19-697, limits assumed)
T7 construct: domain: Domains 1 to 7; Coated at 2.8 ug/mL
T7 sequence (looked up): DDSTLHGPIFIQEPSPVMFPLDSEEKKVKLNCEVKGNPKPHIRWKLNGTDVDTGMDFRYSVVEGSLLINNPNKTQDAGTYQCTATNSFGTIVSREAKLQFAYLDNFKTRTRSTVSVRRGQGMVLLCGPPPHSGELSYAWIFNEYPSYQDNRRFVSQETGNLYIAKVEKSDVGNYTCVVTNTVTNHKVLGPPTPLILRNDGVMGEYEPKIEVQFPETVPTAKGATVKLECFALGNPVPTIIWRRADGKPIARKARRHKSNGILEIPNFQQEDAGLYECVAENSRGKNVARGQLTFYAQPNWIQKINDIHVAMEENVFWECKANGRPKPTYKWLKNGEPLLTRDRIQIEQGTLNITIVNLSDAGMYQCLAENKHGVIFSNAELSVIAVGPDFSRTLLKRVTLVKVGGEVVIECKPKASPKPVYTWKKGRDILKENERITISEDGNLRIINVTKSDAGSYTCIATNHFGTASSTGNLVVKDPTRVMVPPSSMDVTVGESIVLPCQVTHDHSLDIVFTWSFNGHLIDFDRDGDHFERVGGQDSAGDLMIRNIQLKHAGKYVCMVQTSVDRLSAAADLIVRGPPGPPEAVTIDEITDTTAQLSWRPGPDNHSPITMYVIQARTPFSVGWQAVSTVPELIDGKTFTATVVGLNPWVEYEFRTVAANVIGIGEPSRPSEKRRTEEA

Measured: binding result

B1: anti-CNTN4 chicken-human chimeric IgG4 antibody AB1 (antibody, V domains shown)
VH: AVTLDESEGGLQTPGGALSLVCKASGFTFSSFNMFWVRQAPGKGLEYVAEISGGGGSTWYAPAVKGRATISRDNGQSTVRLQLNNLRAEDTGTYYCAKSADTWSYGAATIDAWGHGTEVIVSS
VL: ALTQPSSVSANLGETVKITCSGSSGSYGWYQQKSPGSAPVTLIYDNTNRPSDIPSRFSGSGSGSTGTLTITGVRAEDEAVYYCGGYDGSTDVFGAGTTLTVL
notes: They were cloned into a chicken-human chimeric IgG4 and purified on Kappa select resin, so the light chain has a kappa constant region; also called anti-CNTN4 antibody AB1; anti-CNTN4 129 chimeric IgG4 antibody
binds: [2] | [3] | [4]
no binding: all other assays above
